The chains are these.
B1: Cytotoxic and regulatory T-cell molecule (Homo sapiens), O95727-1 (parent)
chain: MWWRVLSLLAWFPLQEASLTNHTETITVEEGQTLTLKCVTSLRKNSSLQWLTPSGFTIFLNEYPALKNSKYQLLHHSANQLSITVPNVTLQDEGVYKCLHYSDSVSTKEVKVIVLATPFKPILEASVIRKQNGEEHVVLMCSTMRSKPPPQITWLLGNSMEVSGGTLHEFETDGKKCNTTSTLIIHTYGKNSTVDCIIRHRGLQGRKLVAPFRFEDLVTDEETASDALERNSLSSQDPQQPTSTVSVTEDSSTSEIDKEEKEQTTQDPDLTTEANPQYLGLARKKSGILLLTLVSFLIFILFIIVQLFIMKLRKAHVIWKKENEVSEHTLESYRSRSNNEETSSEEKNGQSSHPMRCMNYITKLYSEAKTKRKENVQHSKLEEKHIQVPESIV
partner: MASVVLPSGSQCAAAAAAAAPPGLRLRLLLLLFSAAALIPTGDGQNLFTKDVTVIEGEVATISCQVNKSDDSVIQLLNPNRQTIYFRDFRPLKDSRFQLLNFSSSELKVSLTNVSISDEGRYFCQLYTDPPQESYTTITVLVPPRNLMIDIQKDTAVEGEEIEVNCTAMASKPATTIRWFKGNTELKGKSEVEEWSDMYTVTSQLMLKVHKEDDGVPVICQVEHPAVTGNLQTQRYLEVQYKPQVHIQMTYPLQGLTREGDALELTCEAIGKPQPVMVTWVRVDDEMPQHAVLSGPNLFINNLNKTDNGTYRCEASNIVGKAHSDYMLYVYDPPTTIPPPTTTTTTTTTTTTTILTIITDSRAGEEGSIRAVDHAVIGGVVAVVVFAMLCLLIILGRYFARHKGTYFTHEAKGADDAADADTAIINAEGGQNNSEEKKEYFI

Variants of B1 are the subject of this assay. Conditions: with cadm1_human CADM1, Q9BY67.
In the case of K67A, the “effect of a mutation on the interaction” value is recorded as “decreasing interaction strength”.
The value for F56A;T57A;K67A;Y101A was “decreasing interaction strength”.
For the variant T57A, the “effect of a mutation on the interaction” value is reported as “decreasing interaction strength”.
With F56A, the “effect of a mutation on the interaction” value was “decreasing interaction strength”.
Take Y101A: the “effect of a mutation on the interaction” value is “decreasing interaction strength”.

For the origin of these results see IntAct's records for PubMed 23871486.
